Data from patent US20220041716A1 (BEIJING NEOLETIX BIOLOGICAL TECHNOLOGY, published 2022).

T1: human extracellular domain of TLT-1-Fc tagged protein (sTLT-1-Fc) (human, UniProt Q86YW5 16-162)
T1 construct: also called SILT-1-Fc; extracellular domain of human TLT-1; not shown: Fc tag
T1 sequence: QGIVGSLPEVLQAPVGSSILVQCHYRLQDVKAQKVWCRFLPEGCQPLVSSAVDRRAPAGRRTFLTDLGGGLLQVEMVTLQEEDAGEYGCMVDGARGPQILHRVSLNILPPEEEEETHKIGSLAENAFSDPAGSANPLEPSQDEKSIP

T2: human extracellular domain of TLT-1-Fc tagged protein (sTLT-1-Fc) (UniProt Q86YW5 16-162)
T2 chain: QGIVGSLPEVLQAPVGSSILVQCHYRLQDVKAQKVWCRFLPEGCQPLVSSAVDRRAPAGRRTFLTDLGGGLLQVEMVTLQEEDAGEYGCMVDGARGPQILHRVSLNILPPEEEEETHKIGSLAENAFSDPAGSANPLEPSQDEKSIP

T3: mouse TLT-1 on activated mouse platelets (mouse, UniProt Q8K558 21-317)
T3 construct: whole, on cells
T3 sequence (looked up): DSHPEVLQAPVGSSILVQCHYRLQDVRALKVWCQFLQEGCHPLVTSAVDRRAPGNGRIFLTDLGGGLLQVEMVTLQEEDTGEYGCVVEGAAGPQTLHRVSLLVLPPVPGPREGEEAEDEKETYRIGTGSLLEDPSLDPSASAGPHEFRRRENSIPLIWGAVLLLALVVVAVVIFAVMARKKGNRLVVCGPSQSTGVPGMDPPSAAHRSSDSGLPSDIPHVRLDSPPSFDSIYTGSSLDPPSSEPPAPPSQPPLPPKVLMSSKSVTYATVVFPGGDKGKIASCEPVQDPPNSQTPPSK


Columns and labels:
[1] = biological target: T1, human extracellular domain of TLT-1-Fc …; test: ELISA, human TLT-1 extracellular domain coated, anti-His-HRP detection, Kd fitted from OD450
Procedure: The extracellular domain of human TLT-1 protein was coated onto a 96-well plate for ELISA. After 24 hours incubation at 4° C. and 2 hours of blocking at room temperature (RT) with the blocking buffer, increasing concentrations of ten anti-TLT-1 sdAbs, sTF₂₀₉-PC1sdAb 2-33TLT-His and sTF₂₀₉-PC2sdAb 2-90TLT-His proteins were added to the respective wells for 1-hour incubation at RT. Anti-His tag—HRP-labeled antibody was used to evaluate the binding.
The binding of sdAb 2-33TLT-His, sdAb 2-132TLT-His, sdAb 2-25TLT-His, sdAb 2-64 TLT-His, sdAb 2-90TLT-His, sdAb 2-127TLT-His, sdAb 2-2 TLT-His, sdAb 3-32TLTcur-His; sdAb 3-38TLT-His and sdAb 2-69TLT-His, sTF₂₀₉-PC1-sdAb 2-33TT-His and s TF₂₀₉-PC1-sdAb 2-90TLT-His proteins to the human extracellular domain of TLT-1-Fc tagged protein (sTLT-1-Fc) was analyzed using ELISA, sTLT-1-Fc (3 μg/ml) was immobilized onto a 96-well plate for 24 hours at 4° C. and each well immobilized with SILT-1-Fc was blocked with 2% BSA PBST (PBS plus 0.1% Tween 20) for 2 hours at room temperature (RT). Serial dilution (1000 nM to 0.001 nM) of TLT-sdAbs and sTF-sdAb fusion proteins was performed and diluted proteins were then added to the coated 96-well platelet and incubated for 1 hour. After 3 times of washing with PBST, anti-His HRP antibody was added and incubated for 1 hour at RT. The plate was then washed for 3 times to remove the excess HRP conjugate and 100 μL TMB substrate was then added and incubated for 10-15 mins. To stop the reaction of color development, 2M sulfuric acid was added to the well.

[2] = biological target: T2, human extracellular domain of TLT-1-Fc …; test: ELISA
[3] = biological target: T2, human extracellular domain of TLT-1-Fc …; test: ELISA; second row printed 2-33; plot key shows sdAb 2-90TLT-His
[4] = biological target: T3, mouse TLT-1 on activated mouse platelets; test: flow cytometry, collagen-activated mouse platelets in whole blood, FITC anti-His detection
Procedure: To prepare activated human platelets, ADP (5 and 20 μM) were preincubated with human whole blood and the above proteins were then added to the ADP-treated whole blood. To prepare activated mouse platelets, collagen, at either 5 μg/ml or 10 μg/ml, was preincubated with mouse whole blood and the above proteins were then added to the […] whole blood. The binding of the proteins with platelets was detected with FITC-labeled—anti-His tag antibody.
The binding capability of sdAb 2-33TLT-His, sdAb sTF₂₀₉-PC1-sdAb 2-33TLT-His and sTF₂₀₉-PC1-sdAb 2-90TLT-His proteins to both human and mouse resting and activated platelets was tested by FACS assay. Citrated human (3 donors) and mouse (12 mice) whole blood were collected at room temperature (RT) and 10 μL of whole blood was used for each sample. To activate human platelets, ADP (5 and 20 μM) was used, and incubated with whole blood for 10 min at room temperature (RT). To activate mouse platelet, Type I fibrillary collagen (5 and 10 ug/ml) was used and incubated with whole blood for 10 min at room temperature (RT). […] After incubation for 30 min at room temperature, all samples were fixed with 500 μL of 5% paraformaldehyde for 10 min at RT and. analyzed by FACS (LSR II, Beckon Dickinson, San Jose, Calif.).

[5] = biological target: T2, human extracellular domain of TLT-1-Fc …; test: ELISA

Binder | Kd [1] [nM] | Kd [2] [nM] | Kd [3] [nM] | binding result [4] | Kd [5] [nM]
sdAb 2-90TLT-His (VHH, also called sdAb-2-90-His) VHH: QVQLVESGGGLVQAGGSLTLSCAASGSTSGINVMAWYRQAPGKQRELVANKARGGLPKYADFAKGRFTISRDNTKNTISLQMNSLKPEDTAVYYCNALLDWRLGDYWGQGTQVTVSS | < 10 | 2.39 | 2.67 | binds | 
sdAb 2-33TLT-His (VHH, also called sdAb-2-33-His) VHH: QVQLVESGGGLVQPGGSLTLSCAASGSIANIGGMAWYRRLPGNKRAMVASITSAGTASSYIDSVKGRFTISRDNAKNTVYLQMTSLKPEDTAVYLCKAWDRDLVDYWGQGIQVTVSS | < 10 | 2.74 |  |  | 4.47
sTF209-PC1-sdAb 2-33TLT-His (other, the entry also holds vector-derived N-terminal residues; also called sTF209-PC1-dAb 2-33TLT-His; sTF209-sdAb 2-33TLT-His) MASMSGTTNTVAAYNLTWKSTNFKTILEWEPKPVNQVYTVQISTKSGDWKSKCFYTTDTECDLTDEIVKDVKQTYLARVFSYPAGNVESTGSAGEPLYENSPEFTPYLETNLGQPTIQSFEQVGTKVNVTVEDERTLVRRNNTFLSLRDVFGKDLIYTLYYWKSSSSGKKTAKTNTNEFLIDVDKGENYCFSVQAVIPSRTVNRKSTDSPVECGSGGGTGGGSGGSGGGTGGGSGAIEPRSFSQNQVQLVESGGGLVQPGGSLTLSCAASGSIANIGGMAWYRRLPGNKRAMVASITSAGTASSYIDSVKGRFTISRDNAKNTVYLQMTSLKPEDTAVYLCKAWDRDLVDYWGQGIQVTVSSHHHHHH | < 10 |  |  |  | 2.28
sTF209-PC1-sdAb 2-90TLT-His (other, the entry also holds vector-derived N-terminal residues) MASMSGTTNTVAAYNLTWKSTNFKTILEWEPKPVNQVYTVQISTKSGDWKSKCFYTTDTECDLTDEIVKDVKQTYLARVFSYPAGNVESTGSAGEPLYENSPEFTPYLETNLGQPTIQSFEQVGTKVNVTVEDERTLVRRNNTFLSLRDVFGKDLIYTLYYWKSSSSGKKTAKTNTNEFLIDVDKGENYCFSVQAVIPSRTVNRKSTDSPVECGSGGGTGGGSGGSGGGTGGGSGAIEPRSFSQNQVQLVESGGGLVQAGGSLTLSCAASGSTSGINVMAWYRQAPGKQRELVANKARGGLPKYADFAKGRFTISRDNTKNTISLQMNSLKPEDTAVYYCNALLDWRLGDYWGQGTQVTVSSHHHHHH | < 10 |  |  | binds | 1.19
